Ends that are not written are not given here.
Tests used:
IL-2Rγc subunit = molecular target: T1, IL-2Rγc subunit (Homo sapiens, UniProt P31785); test: competitive binding of synthetic peptides against phage clones on IL-2Rγc; conditions: for competition with phage clone peptide SEQ ID NO 198: phage family 1A; for competition with phage clone peptide SEQ ID NO 224: phage family 1B; for competition with phage clone peptide SEQ ID NO 236: phage family 2; for competition with phage clone peptide SEQ ID NO 248: phage family 3; for competition with phage clone peptide SEQ ID NO 266: phage family 4; for competition with phage clone peptide SEQ ID NO 948: phage family 5
T1 construct: Fc; purchased ACRObiosystems, Inc. ILG-H5256
T1 sequence (P31785 23-254): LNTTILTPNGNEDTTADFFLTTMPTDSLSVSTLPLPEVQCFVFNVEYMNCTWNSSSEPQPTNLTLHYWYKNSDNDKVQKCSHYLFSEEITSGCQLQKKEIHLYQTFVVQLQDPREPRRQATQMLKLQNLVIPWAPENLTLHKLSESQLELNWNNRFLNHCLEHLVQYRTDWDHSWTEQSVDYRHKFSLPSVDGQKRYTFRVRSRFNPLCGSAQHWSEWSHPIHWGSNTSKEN
Protocol: (§1) Representative phage clones displaying peptides from IL-2Rβ ligand families were bound to the extracellular domain (ECD) of IL-2Rβ immobilized in microtiter wells. Phage binding was conducted in the presence and absence of synthetic test peptides to determine if phage peptides and test peptides competed for binding to the same sites on IL-2Rβ . Synthetic test peptides were selected to represent peptides from IL-2Rβ ligand families, as well positive and negative control peptides.
(§2) Phage binding to the immobilized IL-2Rβ ECD was detected by staining with antibody against phage coat proteins (anti-phage Ab), staining with labeled secondary antibody against the anti-phage Ab, and scored by reading OD in the microtiter plate optical reader.
(§3) The ELISA signal for each phage binding in the presence and absence of the test peptides was compared to determine which synthetic peptides competed with which phage peptides for binding to the IL-2Rβ subunit.
A similar study was performed to evaluate the binding of IL-2Rγc ligands.

[1] = molecular target: T2, extracellular domain (ECD) of IL-2Rβ (Homo sapiens, UniProt P14784); test: competitive binding of synthetic peptides against phage clones on IL-2Rβ; conditions: for competition with phage clone peptide SEQ ID NO: 58: phage family 1; for competition with phage clone peptide SEQ ID NO: 170: phage family 2A; for competition with phage clone peptide SEQ ID NO: 83: phage family 2B; for competition with phage clone peptide SEQ ID NO: 1034: phage family 2C; for competition with phage clone peptide SEQ ID NO: 1044: phage family 4
T2 construct: Fc; purchased ACRObiosystems, Inc. ILB-H5253
T2 sequence (P14784 27-239): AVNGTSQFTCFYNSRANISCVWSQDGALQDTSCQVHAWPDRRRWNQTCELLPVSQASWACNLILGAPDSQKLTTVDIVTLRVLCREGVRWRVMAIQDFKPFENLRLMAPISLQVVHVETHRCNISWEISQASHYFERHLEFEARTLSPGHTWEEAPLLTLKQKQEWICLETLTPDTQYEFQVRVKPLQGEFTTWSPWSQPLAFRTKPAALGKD
Protocol: as §1, §2, §3

NK-92 cells = test: STAT5 phosphorylation in NK-92 cells; format: cell-based, human; conditions: NK-92 cells, 10, 1, 0.1 μM, 30 min
Protocol: NK-92 cells were seeded in a 24-well plate at 4×10^5 cells, in 1 mL starvation medium (SM), and incubated overnight at 37° C., 5% CO2. The starvation medium contained RPMI 1640+20% FBS+2 mM L-glutamine+1 mM NaPyr+10 mM HEPES+0.1 mM BME (no rhIL-2 supplement).
Treatment mixtures were of 1 μg/mL Anti-hIL-2 neutralizing antibody (0.2 mg/mL stock) or goat IgG control (1 mg/mL stock) were prepared.
The treatment mixtures and the antibody mix were added to the cells for 30 min at 37° C., 5% CO2. Each sample was then transferred to a 1.5 mL microfuge tube and spun down at 1,500 RPM for 5 minutes. The cells were washed in 1 mL PBS and centrifuged again.
A phosphatase and protease inhibitor cocktail (Thermo #78442) were added to mPER buffer at a 1:100 dilution. After the cells were pelleted, 50 μL of mPER buffer was added to each sample and pipetted repeatedly to homogenize.
The lysates were centrifuged at 14,000 RPM for 5 min at RT. The supernatants were transferred to clean tubes and stored frozen at −80° C.
The treatment reagents included Anti-STAT5 Antibody (rabbit), Cell Signaling No. 94205S; Anti-pSTAT5 Antibody (rabbit), Cell Signaling No. 4322S; and Goat anti-rabbit IgG-HRP, Jackson Immunoresearch No. 111-035-144.

Row | Substance | competition with phage clone peptide SEQ ID NO 198 (IL-2Rγc subunit) | competition with phage clone peptide SEQ ID NO 224 (IL-2Rγc subunit) | competition with phage clone peptide SEQ ID NO 236 (IL-2Rγc subunit) | competition with phage clone peptide SEQ ID NO 248 (IL-2Rγc subunit) | competition with phage clone peptide SEQ ID NO 266 (IL-2Rγc subunit) | competition with phage clone peptide SEQ ID NO 948 (IL-2Rγc subunit) | competition with phage clone peptide SEQ ID NO: 58 [1] | competition with phage clone peptide SEQ ID NO: 170 [1] | competition with phage clone peptide SEQ ID NO: 83 [1] | competition with phage clone peptide SEQ ID NO: 1034 [1] | competition with phage clone peptide SEQ ID NO: 1044 [1] | also measured
1 | 58 (YDCRIAQVGELCDL) [Peptide 58] | − | − | − | − | − | − | +^1 (Peptide competes with phage binding.) | + (Peptide competes with phage binding.) | + (Peptide competes with phage binding.) | + (Peptide competes with phage binding.) | − | 
2 | 58 (YDCRIAQVGELCDL) [compound 58] |  |  |  |  |  |  |  |  |  |  |  | competition for binding to the IL-2Rγc binding site with the group of IL-2Rγc ligands (IL-2Rγc subunit): does not compete
3 | 169 (NMCLVGDYWPSCQI) [Peptide 169] |  |  |  |  |  |  | + (Peptide competes with phage binding.) | + (Peptide competes with phage binding.) | + (Peptide competes with phage binding.) | + (Peptide competes with phage binding.) | − | 
4 | 202 (RTCTEWENVVLCWV) [Peptide 202] | +^1 (Peptide competes with phage binding.) | + (Peptide competes with phage binding.) | + (Peptide competes with phage binding.) | + (Peptide competes with phage binding.) | + (Peptide competes with phage binding.) | − |  |  |  |  |  | 
5 | 224 (DCSMWEGVELCW) [Peptide 224] | + (Peptide competes with phage binding.) | + (Peptide competes with phage binding.) | + (Peptide competes with phage binding.) | + (Peptide competes with phage binding.) | + (Peptide competes with phage binding.) | − | − | − | − | − | − | 
6 | 224 (DCSMWEGVELCW) [compound 224] |  |  |  |  |  |  |  |  |  |  |  | competition for binding to the IL-2Rβ binding site with the group of IL-2Rβ ligands [1]: does not compete
7 | 236 (MCWLEWGEWVGSCL) [Peptide 236] | + (Peptide competes with phage binding.) | + (Peptide competes with phage binding.) | + (Peptide competes with phage binding.) | + (Peptide competes with phage binding.) | + (Peptide competes with phage binding.) | − |  |  |  |  |  | 
8 | 248 (DLSDLCTFWLSQ) [Peptide 248] | + (Peptide competes with phage binding.) | + (Peptide competes with phage binding.) | + (Peptide competes with phage binding.) | + (Peptide competes with phage binding.) | + (Peptide competes with phage binding.) | − |  |  |  |  |  | 
9 | 948 (SLLKCYNASTCASVF) [Peptide 948] | −^2 | − | − | − | − | + (Peptide competes with phage binding.) |  |  |  |  |  | 
10 | 948 (SLLKCYNASTCASVF) [compound 948] |  |  |  |  |  |  |  |  |  |  |  | competition for binding to the IL-2Rγc binding site with the group of IL-2Rγc ligands (IL-2Rγc subunit): does not compete
11 | 1042 (CYEVGDYCQSPL) [Peptide 1042] |  |  |  |  |  |  | + (Peptide competes with phage binding.) | + (Peptide competes with phage binding.) | + (Peptide competes with phage binding.) | + (Peptide competes with phage binding.) | − | 
12 | 1044 (RSCYYKRPRLWCSE) [Peptide 1044] |  |  |  |  |  |  | −^2 | − | − | − | − | 
13 | 1044 (RSCYYKRPRLWCSE) [compound 1044] |  |  |  |  |  |  |  |  |  |  |  | competition for binding to the IL-2Rβ binding site with the group of IL-2Rβ ligands [1]: does not compete
14 | Compound A: heterodimer of SEQ. ID. NO: 58 and SEQ ID. NO. 224 (chain 1 YDCRIAQVGELCDL; chain 2 DCSMWEGVELCW; cysteine pairing not given here; also: heterodimer, linkage not given here) |  |  |  |  |  |  |  |  |  |  |  | STAT5 phosphorylation (pSTAT5), Western Blot (NK-92 cells): induced (in a dose-responsive manner) STAT5 phosphorylation
15 | Compound B: heterodimer of SEQ. ID. NO: 58 and SEQ ID. NO. 237 (chain 1 YDCRIAQVGELCDL; chain 2 LCFSEFLGEWVDCN; cysteine pairing not given here; also: heterodimer, linkage not given here) |  |  |  |  |  |  |  |  |  |  |  | STAT5 phosphorylation (pSTAT5), Western Blot (NK-92 cells): induced (in a dose-responsive manner) STAT5 phosphorylation
